According to the supplement of paper PMC7125110:
± gives the standard error. For some of these results: Variants at the floor of the assay were thinned out.

B1: glmS ribozyme (parent)
chain: AUAAAAGCGCCAGAACUACAGAAAUGUAGUUGACGAGGAGGAGGUUUAUCGAAUUUUCGGCGGAUGCCUCCAAA

How the values were obtained:
Details in all cases: with glucosamine-6-phosphate
[1] = variants of: B1; assay: kcat; higher = faster cleavage; RNA array
How it was run: (§1)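 Barcoded glmS ribozyme variants on sequenced MiSeq chips were transcribed in situ by E. coli RNA polymerase and tracked through a hybridised Cy3 probe at 37 °C. Glucosamine-6-phosphate (40 μM to 10 mM) in HEPES/KCl/Mg(OAc)2 buffer was flowed in, and tiles were imaged over ~14 h. Signals were normalised to baseline and to non-cleaving reference variants; per-tile medians were fit to one- or two-exponential decays to give kobs. kcat and KM came from weighted Michaelis–Menten fits across concentrations.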

[2] = variants of: B1; assay: self-cleavage kobs at 10000 uM GlcN6P; higher = faster cleavage; RNA array
How it was run: as §1

[3] = variants of: B1; assay: self-cleavage kobs at 40 uM GlcN6P; higher = faster cleavage; RNA array
How it was run: as §1

[4] = variants of: B1; assay: self-cleavage kobs at 2500 uM GlcN6P; higher = faster cleavage; RNA array
How it was run: as §1

[5] = variants of: B1; assay: KM; higher = weaker cofactor use; RNA array
How it was run: as §1

[6] = variants of: B1; assay: self-cleavage kobs at 640 uM GlcN6P; higher = faster cleavage; RNA array
How it was run: as §1

[7] = variants of: B1; assay: self-cleavage kobs at 160 uM GlcN6P; higher = faster cleavage; RNA array
How it was run: as §1

Variant | kcat [1] | self-cleavage kobs at 10000 uM GlcN6P [2] | self-cleavage kobs at 40 uM GlcN6P [3] | self-cleavage kobs at 2500 uM GlcN6P [4] | KM [5] | self-cleavage kobs at 640 uM GlcN6P [6] | self-cleavage kobs at 160 uM GlcN6P [7]
C10G A12C | 3.86e-05 ± 1.4e-05 s⁻¹ | 2.24e-05 ± 9.4e-06 s⁻¹ |  |  |  |  | 
C11A A36U G37C | < 1e-05 s⁻¹ |  | < 1e-05 s⁻¹ |  |  |  | 
C11U A15C G51U C70A | 6.95e-05 ± 2.4e-05 s⁻¹ | 5.08e-05 ± 2e-05 s⁻¹ | 6.91e-05 ± 1.9e-05 s⁻¹ | 0.000111 ± 3.3e-05 s⁻¹ |  |  | 
C10A A12U C71U | 1.55e-05 ± 6.5e-07 s⁻¹ |  |  |  | 21.5 ± 9.2 µM |  | 
C10A C68A | 1.98e-05 ± 3.8e-06 s⁻¹ |  |  |  |  |  | 
C10U U31A | 2.74e-05 ± 1e-06 s⁻¹ |  |  |  | 5120 ± 380 µM |  | 
A12C C50U | 0.000203 ± 3.3e-05 s⁻¹ |  |  | 7.01e-05 ± 1.5e-05 s⁻¹ | 4750 ± 1100 µM |  | 
C11U U45G U54A | 0.000206 ± 5.6e-05 s⁻¹ | 0.000152 ± 3.4e-05 s⁻¹ |  | 0.000119 ± 2.7e-05 s⁻¹ |  |  | 
C10A A12G | < 1e-05 s⁻¹ | < 1e-05 s⁻¹ | < 1e-05 s⁻¹ |  |  |  | 
C11U C71G | 0.000109 ± 9.1e-06 s⁻¹ | 0.000111 ± 1.2e-05 s⁻¹ |  | 8.38e-05 ± 1.2e-05 s⁻¹ | 408 ± 150 µM | 7.07e-05 ± 1.2e-05 s⁻¹ | 
C10U C67A | 1.13e-05 ± 2.7e-06 s⁻¹ |  |  |  |  |  | 
C10A U57G | < 1e-05 s⁻¹ |  | < 1e-05 s⁻¹ |  |  |  | 
C10A A14C C71A | 2.17e-05 ± 9.3e-06 s⁻¹ |  |  |  |  |  | 
C11U C58A | 5.6e-05 ± 2e-06 s⁻¹ | 5.15e-05 ± 8.2e-06 s⁻¹ |  | 4.48e-05 ± 1.1e-05 s⁻¹ | 753 ± 170 µM |  | 
C11U G59U | 0.000274 ± 3.6e-06 s⁻¹ | 0.00023 ± 1.9e-05 s⁻¹ |  | 0.000155 ± 1.6e-05 s⁻¹ | 1920 ± 51 µM | 6.88e-05 ± 6.5e-06 s⁻¹ | 
A12C G40C | 0.000942 ± 0.00014 s⁻¹ | 0.000746 ± 6.8e-05 s⁻¹ | 3.01e-05 ± 9.1e-06 s⁻¹ | 0.000666 ± 0.00012 s⁻¹ | 2310 ± 620 µM | 0.0002 ± 6.3e-05 s⁻¹ | 5.51e-05 ± 8.5e-06 s⁻¹
A12C G40U | 0.00214 ± 0.00032 s⁻¹ | 0.00165 ± 0.00013 s⁻¹ | 4.4e-05 ± 6.1e-06 s⁻¹ | 0.0012 ± 0.00012 s⁻¹ | 2490 ± 550 µM | 0.000471 ± 5e-05 s⁻¹ | 0.000109 ± 1.2e-05 s⁻¹
C11G G37U | 1.74e-05 ± 6.6e-06 s⁻¹ | < 1e-05 s⁻¹ | < 1e-05 s⁻¹ | < 1e-05 s⁻¹ |  |  | 
C10A A39G | < 1e-05 s⁻¹ |  |  |  |  | < 1e-05 s⁻¹ | < 1e-05 s⁻¹
C11G A33U U54G C67A C71U | 1.15e-05 ± 1.8e-06 s⁻¹ |  |  |  |  |  | 
C10U C61U G63A | < 1e-05 s⁻¹ | < 1e-05 s⁻¹ |  |  |  |  | 
A12C U30A | 0.00751 ± 0.0021 s⁻¹ | 0.00447 ± 0.00074 s⁻¹ | 5.95e-05 ± 1.5e-05 s⁻¹ | 0.0017 ± 0.00056 s⁻¹ | 7100 ± 2600 µM | 0.000745 ± 0.0002 s⁻¹ | 0.000144 ± 3e-05 s⁻¹

Variant | kcat [1] | self-cleavage kobs at 10000 uM GlcN6P [2] | self-cleavage kobs at 40 uM GlcN6P [3] | self-cleavage kobs at 2500 uM GlcN6P [4] | KM [5] | self-cleavage kobs at 640 uM GlcN6P [6] | self-cleavage kobs at 160 uM GlcN6P [7]
C10A U47A U57A C70U | 3.44e-05 ± 1.3e-05 s⁻¹ |  |  |  |  |  | 
C11U U49G | 1.33e-05 ± 1.3e-06 s⁻¹ |  | < 1e-05 s⁻¹ |  |  |  | 
G9A U31A | 2.13e-05 ± 6.3e-07 s⁻¹ |  | < 1e-05 s⁻¹ |  |  | < 1e-05 s⁻¹ | < 1e-05 s⁻¹
A12C G37C | 8.54e-05 ± 2.4e-06 s⁻¹ | 5.03e-05 ± 7.5e-06 s⁻¹ |  | 2.27e-05 ± 8.6e-06 s⁻¹ | 6970 ± 420 µM |  | 
C11G G51A | < 1e-05 s⁻¹ | < 1e-05 s⁻¹ | < 1e-05 s⁻¹ |  | 30.6 ± 15 µM |  | 
C10A U30C A53G C67A | 1.94e-05 ± 4e-06 s⁻¹ |  |  |  |  |  | 
C11U A52U | 5.56e-05 ± 4.4e-06 s⁻¹ | 4.77e-05 ± 8.4e-06 s⁻¹ |  | 3.57e-05 ± 1.8e-05 s⁻¹ | 1620 ± 690 µM |  | 
C11U A52G | 0.000164 ± 8e-06 s⁻¹ | 0.000139 ± 1.1e-05 s⁻¹ |  | 0.000109 ± 1.8e-05 s⁻¹ | 1690 ± 270 µM | 4.15e-05 ± 1e-05 s⁻¹ | 
G9U C61G | 0.000192 ± 1.7e-05 s⁻¹ | 0.00016 ± 2.5e-05 s⁻¹ | < 1e-05 s⁻¹ | 9.21e-05 ± 1.7e-05 s⁻¹ | 2350 ± 460 µM | 4.57e-05 ± 1.2e-05 s⁻¹ | 
C10U C11U | 3.12e-05 ± 1.5e-05 s⁻¹ |  | < 1e-05 s⁻¹ |  |  |  | < 1e-05 s⁻¹
C10A U57C C61U | < 1e-05 s⁻¹ | < 1e-05 s⁻¹ |  |  |  |  | 
C11A U57A | < 1e-05 s⁻¹ |  |  |  |  |  | 
A12C C16U | 0.0121 ± 0.005 s⁻¹ | 0.016 ± 0.0022 s⁻¹ | 0.000543 ± 4.7e-05 s⁻¹ | 0.0065 ± 0.0011 s⁻¹ |  | 0.00435 ± 0.00065 s⁻¹ | 0.001 ± 0.00018 s⁻¹
C11G C16U | < 1e-05 s⁻¹ |  |  |  |  |  | < 1e-05 s⁻¹
C11U U65G | 0.000263 ± 6.3e-05 s⁻¹ | 0.000227 ± 9.2e-05 s⁻¹ | < 1e-05 s⁻¹ |  | 2580 ± 1200 µM | 6.28e-05 ± 3.1e-05 s⁻¹ | 
C11G C67G C70G | 5.32e-05 ± 2.1e-05 s⁻¹ |  |  |  |  | 8.18e-05 ± 2.2e-05 s⁻¹ | 
C11G U30C U65G U69A | 2.81e-05 ± 7.1e-06 s⁻¹ |  |  |  |  |  | 
C11U U55A U56G | 0.000956 ± 0.00038 s⁻¹ | 0.00113 ± 0.00024 s⁻¹ | 4.23e-05 ± 1.9e-05 s⁻¹ | 0.000451 ± 0.00012 s⁻¹ |  | 0.000289 ± 4.5e-05 s⁻¹ | 
C10U U30G | < 1e-05 s⁻¹ |  | < 1e-05 s⁻¹ |  |  | < 1e-05 s⁻¹ | < 1e-05 s⁻¹
C10U G35A | 1.32e-05 ± 1.8e-06 s⁻¹ | < 1e-05 s⁻¹ |  |  |  |  | 
C11U U30A | 0.00152 ± 0.00047 s⁻¹ | 0.0018 ± 0.00027 s⁻¹ | 8.01e-05 ± 1.1e-05 s⁻¹ | 0.0011 ± 0.00021 s⁻¹ | 931 ± 450 µM | 0.000433 ± 7.8e-05 s⁻¹ | 0.000252 ± 4.8e-05 s⁻¹
